{
  "source": "patent US20070031445A1",
  "about": "(BOARD OF REGENTS OF THE UNIVERSITY OF NEBRASKA, published 2007)",
  "key": {"[1]": {"target": "T1, C5a receptor (C5aR) expressed on the surface of human PMNs (human, UniProt P21730 1-350)", "T1 sequence (looked up)": "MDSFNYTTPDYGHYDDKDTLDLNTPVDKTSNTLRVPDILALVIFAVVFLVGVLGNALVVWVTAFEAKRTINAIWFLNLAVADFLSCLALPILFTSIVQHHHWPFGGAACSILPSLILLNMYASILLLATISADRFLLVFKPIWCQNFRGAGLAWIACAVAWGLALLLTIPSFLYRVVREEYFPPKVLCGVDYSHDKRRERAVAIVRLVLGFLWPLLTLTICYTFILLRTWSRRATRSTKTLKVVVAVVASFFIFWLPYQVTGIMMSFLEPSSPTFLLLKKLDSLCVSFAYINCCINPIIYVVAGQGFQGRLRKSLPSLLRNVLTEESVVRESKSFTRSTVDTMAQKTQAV", "test": "cell-based or functional assay"}, "[2]": {"target": "T1, C5a receptor (C5aR) expressed on the …", "test": "cell-based or functional assay", "remark": "listed apart in the source"}, "[3]": {"target": "T1, C5a receptor (C5aR) expressed on the …", "test": "competition with 125I-C5a on intact human PMNs", "description": "Statistical analysis of the values obtained from pharmacologic assays was performed using one-way analysis of variance (ANOVA)."}, "[4]": {"target": "T1, C5a receptor (C5aR) expressed on the …", "test": "competition with 125I-C5a on intact human PMNs (column headed EC50; 50% inhibition of 125I-C5a binding)"}},
  "note": "Where no end group is shown, it is not given here. [ ]: non-standard residue; d: D form.",
  "data": [
    {"binder": "IPQSLDSWWTSLRRYSFKPMPL[dA]R (Synthetic peptide; also called RR-containing construct)", "note": "[IPQSLDSWWTSLRRYSFKPMPLaR (double-Arg-linked C5a-active construct)]", "values": [
      {"measurement": "EC50, smooth muscle contraction of human umbilical artery", "setting": "[1]", "result": 0.161, "unit": "µM"},
      {"measurement": "pD2, smooth muscle contraction of human umbilical artery", "setting": "[1]", "result": "6.79 -log EC50 (M)"},
      {"measurement": "EC50, MPO release from human PMNs", "setting": "[2]", "result": 0.54, "unit": "µM"},
      {"measurement": "pD2, MPO release from human PMNs", "setting": "[2]", "result": "6.27 -log EC50 (M)"},
      {"measurement": "pD2 (-log IC50 (M))", "setting": "[3]", "result": "6.38 -log IC50 (M)"},
      {"measurement": "IC50", "setting": "[4]", "result": 0.416, "unit": "µM"}
    ]},
    {"binder": "IPQSLDSWWTSLRVRRYSFKPMPL[dA]R (Synthetic peptide; also called RVRR-containing construct)", "note": "[IPQSLDSWWTSLRVRRYSFKPMPLaR (RVRR furin-sensitive-linked C5a-active construct)]", "values": [
      {"measurement": "EC50, smooth muscle contraction of human umbilical artery", "setting": "[1]", "result": 0.18, "unit": "µM"},
      {"measurement": "pD2, smooth muscle contraction of human umbilical artery", "setting": "[1]", "result": "6.67 -log EC50 (M)"},
      {"measurement": "EC50, MPO release from human PMNs", "setting": "[2]", "result": 2.15, "unit": "µM"},
      {"measurement": "pD2, MPO release from human PMNs", "setting": "[2]", "result": "5.61 -log EC50 (M)"},
      {"measurement": "pD2 (-log IC50 (M))", "setting": "[3]", "result": "6.28 -log IC50 (M)"},
      {"measurement": "IC50", "setting": "[4]", "result": 0.529, "unit": "µM"}
    ]},
    {"binder": "YSFKPMPL[dA]RRRIPQSLDSWWTSL (Synthetic peptide)", "note": "[YSFKPMPLa[…] (C5a-inactive construct, C-terminus of agonist blocked by the HBsAg CTL epitope)]", "values": [
      {"measurement": "EC50, smooth muscle contraction of human umbilical artery", "setting": "[1]", "result": 39.4, "unit": "µM"},
      {"measurement": "pD2, smooth muscle contraction of human umbilical artery", "setting": "[1]", "result": "4.41 -log EC50 (M)"},
      {"measurement": "EC50, MPO release from human PMNs", "setting": "[2]", "result": "> 1000", "unit": "µM"},
      {"measurement": "pD2 (-log IC50 (M))", "setting": "[3]", "result": "3.33 -log IC50 (M)"},
      {"measurement": "IC50", "setting": "[4]", "result": 465, "unit": "µM"}
    ]},
    {"binder": "YSFKPMPL[dA]R (Synthetic peptide; also called C5a agonist; peptide (2))", "note": "[C5a C-terminal decapeptide agonist analog YSFKPMPLaR]", "values": [
      {"measurement": "EC50, smooth muscle contraction of human umbilical artery", "setting": "[1]", "result": 0.01, "unit": "µM"},
      {"measurement": "pD2 (-log IC50 (M))", "setting": "[3]", "result": "5.63 -log IC50 (M)"},
      {"measurement": "IC50", "setting": "[4]", "result": 2.34, "unit": "µM"}
    ]},
    {"binder": "IPQSLDSWWTSLYSFKPMPL[dA]R (Synthetic peptide; also called C5a-active construct without linker)", "note": "[IPQSLDSWWTSLYSFKPMPLaR (HBsAg CTL epitope attached directly to N-terminus of the C5a agonist)]", "values": [
      {"measurement": "EC50, smooth muscle contraction of human umbilical artery", "setting": "[1]", "result": 0.21, "unit": "µM"},
      {"measurement": "pD2, smooth muscle contraction of human umbilical artery", "setting": "[1]", "result": "6.68 -log EC50 (M)"},
      {"measurement": "EC50, MPO release from human PMNs", "setting": "[2]", "result": 1.58, "unit": "µM"},
      {"measurement": "pD2, MPO release from human PMNs", "setting": "[2]", "result": "5.8 -log EC50 (M)"},
      {"measurement": "pD2 (-log IC50 (M))", "setting": "[3]", "result": "5.43 -log IC50 (M)"},
      {"measurement": "IC50", "setting": "[4]", "result": 3.69, "unit": "µM"}
    ]},
    {"binder": "natural C5a (ligand, UniProt P01031 678-751, looked up, 125I label on the tracer form used in the competition assay, C5a is only a fragment of it) TLQKKIEEIAAKYKHSVVKKCCYDGACVNNDETCEQRAARISLGPRCIKAFTECCVVASQLRANISHKDMQLGR", "values": [
      {"measurement": "EC50, smooth muscle contraction of human umbilical artery", "setting": "[1]", "result": 0.002, "unit": "µM"},
      {"measurement": "EC50, MPO release from human PMNs", "setting": "[2]", "result": 0.003, "unit": "µM"},
      {"measurement": "pD2 (-log IC50 (M))", "setting": "[3]", "result": "9.43 -log IC50 (M)"},
      {"measurement": "IC50", "setting": "[4]", "result": 0.0004, "unit": "µM"}
    ]},
    {"binder": "IPQSLDSWWTSLRRYSFKPMPL[dA]RG (Synthetic peptide)", "values": [
      {"measurement": "EC50, smooth muscle contraction of human umbilical artery", "setting": "[1]", "result": 6.78, "unit": "µM"},
      {"measurement": "pD2, smooth muscle contraction of human umbilical artery", "setting": "[1]", "result": "5.17 -log EC50 (M)"},
      {"measurement": "EC50, MPO release from human PMNs", "setting": "[2]", "result": 2.56, "unit": "µM"},
      {"measurement": "pD2, MPO release from human PMNs", "setting": "[2]", "result": "5.59 -log EC50 (M)"},
      {"measurement": "pD2 (-log IC50 (M))", "setting": "[3]", "result": "4.77 -log IC50 (M)"},
      {"measurement": "IC50", "setting": "[4]", "result": 17, "unit": "µM"}
    ]}
  ]
}
